Assay: soluble on expression in E. coli; label from the status in PepcDB or PDB records

Row | Sequence | soluble on expression in E. coli
1 | MILPNPLARRLFLHLHALAEPPTGPAKGEALLALIDRLGFVQIDSISTVARAHHMILFARRQAYRPEALDRLLAQRHLFEHWTHDAAVIPARFFPFWHHRFRRDRPRLLARWRGWQREGFEEQFDAVLARIAESGPVSAAEVGEEEERGTGGWWDWHPSKAALEYLWRVGELSITRRDSFRKVYDLTSRVIPSGWLAMDPGDAATIHWACSEALDRLGFATSGELAAFWAAASPAEAQAWCHDALARGEIVEVRVEGADGSLRRSYARPEVAALAEAAPDPSPRLRILSPFDPVLRDRARAERLFGFRYRIEVFVPEAKRTYGYYVFPILEGDRLIGRIDMRAHRESGSLRVRALWPEAGVRLGSRRLGRLGAELDRLAQFAGCDQVKFEPDWLRETLPEGSVAGDLEHHHHHH | not soluble
2 | NAVNWGMREYKIYPYELLLVTTRGRNRLPKDVDRTRLERHLSQEEFYQVFGMTISEFDRLALWKRNELKKQARLF | soluble
3 | EDLPTARVGVDYTSDSQVGGTLDLGRRFGDNNQFGARVNLVHREGEGAIDNDKRRTTLASLGLDYRGDRFRSSLDFGYQKKTFHGGTMGVNISGVDFIPALPDNSKNYSQKWGYSDIESEFGMAKAEYDLTDSWTVYSALGGQHSHEIGTYSAPKLLNKNGDATVGRLDTNRIIDAISGMGGVRGDFNTGAISHKVNLGYAAQVHTDATAWRMSARNPTTNIYDNHDVAMPDNAYFGGNYHDPLITSRSRTQGWLLSDTLGFFNDKVLFTAAARHQKVVVRNYSNATGLEDTSSRYTQSRWMPTFGLVYKPWEQLSLYANHTEALQPGSVAPTTAANAGQSTGIAHSKQDEVGVKIDYGTIGGSLALFEIKKPNAISDTAGNYGLDGEQRNRGVEMNVFGEPMLGLRLNASTVWLDAKQTKTAEGATDGKDAIGVANFYAVLGAEYDIKPVEGLTATARVNHSGSQYADAANTKKLDSYTTLDLGLRYRMRLNADQNEMIWRVGVTNVTNEKYWSGIDDTGTYLFEGDPRTVRVSMSYDF | not soluble
4 | MPDGGFKVEVEALRRYRDTLEDFKSQADTFSDLVDRADVGDESWGLVGLATKSSYTEALGQLRDLLDRMKQGLTNTGEKFTKAAELYASNDDQGAIQLGNYEIEVDKVDEVRPAGA | not soluble
5 | MITLTKKQMEEMLAHARQALPNEACGLLGGRRDGDDRWVERVYPLNNLDQSPEHFSMDPREQLTAVKDMRKNGWVMLGNFHSHPATPARPSAEDKRLAFDPSLSYLIISLAEPQKPVCKSFLIKKDGVDEEEIILKEELEHHHHHH | soluble
6 | MGSDKIHHHHHHMSTPLSHATLEQLFLNARTHSHWQPRPVSDELLHQLHELLKQAPTSANCSPARFVFVKSEAAKAKLKPCLAAGNVDKTMAAPVCVIVAHDTRFYEHLPQLFPHADAKSWFEGNQPLIDTTAFRNGTLQGAYLILAARSLGLDCGPMSGFDNAAVDAAFFPDGRVKSNFLINLGYGEADKLFPRSPRFGFDEACQIL | not soluble
7 | SLAVLGLGYAGLFKSQMESLEEYEAKETELKNTYKQKSIDAASLNNLRDELASIRSAFDIMLKQLPTDAEIPNLVQELHQAGSSNGLRLDSVMPQPPVDDGPIKRLPYSISITGNYEQISQFTRDVGSLSRIITLESLKIAQSPENGGNPDGKSSILNLSAIATTYQAKSVEELAAEAAQNAEQK | soluble
8 | MRRCIELAKNGLCNVAPNPMVGAVIVCDGLIIGEGYHIRCGEAHAEVNAIRSVKDKSLLSRSTIYVSLEPCSHYGKTPPCADLIIEKQIPRIVIGCQDPFSQVAGRGIQKLRDAGREVTVGVLEKECRYLIRRFITFNTLHRPFITLKWAESADHFIDVERTDGNPVVLSSPLTSMLVHKKRAETDAIMVGRRTALLDNPSLTVRNWYGRNPVRIVLDRALSLPHSLRLFDGEVPTIVFTAEKHPDKKNVTYRTIEFTQDILPQIMKVLYQQKIQSLLVEGGSQLLQSFIDAELWDEVYIEKCPCKLNSGVKAPEISDNFSYSTEKHFDRQIWHYVFEK | not soluble
9 | MSDLQKLQRFSTCDISDGLLNVYNIPTGGYFPNLTAISPPQNSSIVGTAYTVLFAPIDDPRPAVNYIDSVPPNSILVLALEPHLQSQFHPFIKITQAMYGGLMSTRAQYLKSNGTVVFGRIRDVDEHRTLNHPVFAYGVGSCAPKAVVKAVGTNVQLKILTSDGVTQTICPGDYIAGDNNGIVRIPVQETDISKLVTYIEKSIEVDLLVSEDIKNGIPAKQAQNDRRSVLKKYIHHHHHH | soluble
10 | MNLDKVNKYIKDFEKTIKKPKINFDKSKFYVGVDLGTANIVITILDKDGKPVAGVTQRSRVVRDGIVVDFMEAIEIVRKLKENLEKKLGIEITEGYTAIPPGVEQGSVRAIVNVIESAGIDVLKVVDEPTAASYVLGITDGVVVDLGGGTTGISILEKGKVIFVADEPTGGTHMTLVLAGSYGIDFETAEDIKTDKKKEKEVFVQITPVLQKMAAIVKKYIKDYKVKDVFLVGGACSFDGSESIFERELGLNIYKPYMPVYITPLGIALAGMKSLEHHHHHH | soluble
11 | MGSDKIHHHHHHMSLLSVEHLSHGFADKELYEDANFELNKEDHMGIVGQNGAGKSTLIKILTGETLPDKGRIIWQNKVTYGYLDQYADIPKEDTLYEFLTTAYAELFRQRDLMEKYYADYAENLDDKLLEKAGRIQENLDANNFYDIDTEINRVMTGLGLDDIGKDHIVSEMSGGQRSKIILAKLLLQNPDVLILDEPTNYLDTAHISWLADYLNGFEGAFMVISHDYDFLQKVTNCICDVSFNKITKYRGDFQSAMRQKDARKEAQLKAFEKQQVVIEKAENFIRKNKAGQRSTMAKSREKMLNRMEKIDPPSENLKGHFDFPYLDTGSQNAVAVNKLAVGYGKKQLLEPVTFSMSAGEKVAFSGFNGAGKSTLIKSILGVIPALGGEAHFSPSAKVNYFTQELIWDNPKLTPLETIQNQYPKMLPKTIRTKLAKCGINAADTMKPMKQLSGGEQTKVKLALMELIDSNFLIMDEPTNHLDDETKRALSEALQRFKGNLIVVSHEDSFYSQWIDKEINVEKLRLDRE | not soluble
12 | MGSDKIHHHHHHMRLPPLKALPVFEAAARLNSFSAASEELAITQSAVSHQIKQLETYLGERLFWRSGRRVTLTDEGRQYFDAIGSALLQIERASEQLLGHEESRLRLSVFSSFAVRWLVPRLPDLQRLHPQIDLALEMSSENPVLSDRVADCFITIHRDSRAYSYDLLYEERLFPVCSQDYWQRMRRELGRDVEPERRDEQPVSPGEMAGFPLLSTHSIFDRPAGDWEAWYSAAGELMPTGTRVQHFSHMLLALEAARFHQGIALTNDYMLSTRKDSEDFVRLPTHSVVTGDKFYFAWKTSRRRERGIQTLRRWLVDEAIRGGLRGE | not soluble
13 | MSLQNADRLSREYVAGVNFLLSNQQDKAVDLFLEMLKEDSSAFEAHLTLGNLFRSRGEVERAIRIHQSLMESASLTFDQRLLATQQLGRDYMSAGLYDRAENMFAQLVNEKDFQENAFQSLLTIYQSTSDWKKAIDIAEKLVKSGKHDLREKIAHFYCELALQEMSGDDLDEAIGYLNKAVQADKNCARVSIMLGRLFMARQEYNKAADALKSVLEQDKQLVSEVLPILQECYQHQNQIDEWENFLKRCVEEDCGATAELLLADIIEQQKGHEVAQTYINHRLERHPTMRLFYRLMDYHLAEAEEGRAKESIILLRDMVGEQIRTKPNYRCHKCGFTSHSLYWHCPSCRSWDSIKPIRGLDGQEGHHHHHH | not soluble
14 | MGSDKIHHHHHHMLKDLVREKLLTIMNTKAYTQFNPEQLLQLENEMKIYMKSGDSALTEGNYFFLMEMLFYVLVYRNQDVDAQVVYNTLRDRLGENSYKMVIMKATLLQINGNDKGAIEYLENLLNDDLEYETDFVTYVSIAKKLIAIKTTSKNLSQESVLKEVVALTDKFPLDAELWWYASEIYFEMGQFEKACYCLEQVLCITPFNYACFGRLSETLYYEALRSKKQTKTELLEKALKNALRSVELSELYLKGWALVNIISRELGRNKQNDLIKLSASKLKEISAKSNNKDKITAELILNKI | not soluble
15 | MNVHQRYAMGDSLAAKHGLWSEEQIDAAARVRRIAEEQGLETIRFSFPDQHGILRGKTLVASEALNCLDNGATITTTMLAKDTSHKTVFPVFQAGGGFGMSEMQGGADVVMLPDPTTFRVLPWAPTTGWVLCDLYFADGRPVQFATRNIYRAALQKLAARGYDYKAGLEVEFHVFKVVDSKMRPEHAGQPGEPPEVSLLSHGYQYLTEQRYDQMEPVLELIRRDVVALGLPLRSIEVEFGPSQCEFTFQPTVGLLPADLMVLFRAAVKQICRRHGYHATFMCRPRIPNVVSSGWHLHQSVVARDGGRNAFMSDSDVLSDFGRHYLAGLMTHARAATVFTTPTINGYKRYRSYSLAPDRAIWGRDNRGVMLRVLGGAGDKATRIENRVGEPAANPYLYMASQILSGLDGVDRALDPGPSADTPYETKADLLPKSLREAIFALRDDPFFRTALGDEFVDYYTFIKNAEIERFQAEVTEWEQREYFEMF | soluble
16 | MSLKDLVVGMELGYPPFEMSDKTGKASGISVDFLEAFAKKNGYKLVVKNIAWDGLIPALKTAKIDLIMSSMTITDKRKKVVDFSIPYAKANLAILTPLNSDITNIKDLDKKGKVLALKRGSTGHLYAVKNLKNATINLFDKENAAILEVIQGKADGFFYDQLTIYRTWQKHQDTTRAILAPFQENPEFWGIAVRKGDEALKDKLDNFIDESRKNGFLDFLGNKYLKDIKEGHHHHHH | soluble
17 | MSLLITRFIADHQGHREGPDGLRWGVESICTQLTELGVPIAPSTYYDHINREPSRRELRDGELKEHISRVHAANYGVYGARKVWLTLNREGIEVARCTVERLMTKLGLSGTTRGKARRTTIADPATARPADLVQRRFGPPAPNRLWVADLTYVSTWAGFAYVAFVTDAYARRILGWRVASTMATSMVLDAIEQAIWTRQQEGVLDLKDVIHHTDRGSQYTSIRFSERLAEAGIQPSVGAVGSSYDNALAETINGLYKTELIKPGKPWRSIEDVELATARWVDWFNHRRLYQYCGDVPPVELEAAYYAQRQRPAEGHHHHHH | not soluble
18 | MSVKTWRKIAIDIIRDFDHNIMPLFGNPKASETISISPSGDETKVVDKVAENIIISKFKDLGVNVVSEEIGRIDQGSDYTVVVDPLDGSYNFINGIPFFAVSVAIFHEKDPIYAFIYEPIVERLYEGIPGKGSYLNGEKIKVRELAEKPSISFYTKGKGTKIIDKVKRTRTLGAIALELAYLARGALDAVVDIRNYLRPTDIAAGVVIAREAGAIVKDLDGKDVEITFSATEKVNIIAANNEELLETILRSIEK | soluble
19 | MTLYRQLLAREKENNPIRVGVIGAGQMGFGMISQIAAIPGMSVVGISDIHVDAAKKAADAYNATATKKEKILLSNDFKEIIHSDLVEVIVDATGVPEVGAKISLETLLAKKQLVLLNVEIDITIGPLMKKLYDSAGLVYTGSDGDEPAAITELYEFSKSMGMEVLVAGKGKNNKLKISANPDSCQVEADGKNMASHMLAAFQDGTKTMAEMNLLSNAIGYVPDVVGMHGISGDVDSVIKDLDLKEQGGILNQFGVVEYVDGLAPGVFVIVKGQNEGVSHELSYLMKKGERDHHILYRPYHLASLETPLTIAKAVLNHDHAIVPMGAPVSETVAVAKKDIAAGERLDGIGGFCVRGVLETHVDMAAEGHIPIGLISGEVVARRNIKAGTFITDEDVSLDESTTVWKLRKLQDETFSN | not soluble
20 | MAHHHHHHMRPSFGSLDYNVLSNFCEKLFLAADKNDRNEVITKKTLQMFFTSKIFYEILNHFKNLSTEENKKYVYAKYKTIYLKKCFDNNITPEPGSPKNEDAVSEVDNKIDDEDKEEEEQITNDKYEHYEENNNDYYKGREKIGTQSKGTEDSVDFNLSLKHAQYAVNGIIKIIYIPRYSETRAQIIPFIFRIIFFFNGEEETKNIGYII | not soluble

Reference: the DeepSol protein solubility set
